Assay results as given in the DeepSol protein solubility set.

Assay: soluble on expression in E. coli; label from the status in PepcDB or PDB records

Sequence | soluble on expression in E. coli
MSLGGLCPRCRGRGWCGRDRCPFLDALNEVRARLSSRNVDGYTVTAHVSWRGYPRVIAAPGVGEHRTPDEGGVLADLPYEEALKTRALTFRRYRGKRDVRNPPDLSDPEIESSISVRPVESTLQVRRRLSGASRTTPFIGPLVEGELELDGTPKVPRDLERYHEDDVKAEEAVVGLYRRGYDESYIARALSLGLLGRDRRMVPTRWSVAAVDSMVSEHLAREVRDLPVSSEYRVLSGEVFGNEMWVILRPEPLSYELVEAYEPGAPWSDRTRIAVLRDSEVKDCKEPRETGGAYFAARLAALEWCSELGKQHGITVIRIVRKEYSAPLGAWVIREAVRRAEEVFSTDDPREVWEFLREKLDDPVGEAALKVIKRGRQRTLDTFLEGHHHHHH | not soluble
MSLGGTGKVGVILPLLTSPFWQSYNDYVPKMAKSEGVDTLKTVNSNSDPSQQITDINNQLNQGVKGLVVAPLDSAAIEAGLDQADRKGVPVVAVDVAPEKGKVAMVVRADNVAYGEKACQYLGEQVTSGKVVQIMGDLASVNGRDRSEAFRTCVRKNYPKLKVLEIPAKWESDTAASKLDTLLNANPDIKGIYMQAGGVYLAPTLQTLKSKGLLKKTGEKGHITIVSNDGIPQEFDAIRKGQIDATVSQPADAYAKYGMYYIKAAMQGKTFKPGPTDHDSTIVKLPSGILEDQLPAPLVTKDNVDDAKLWGNTEGHHHHHH | soluble
MSLGINRIDHAAVQVGDLGKALAWYEDVLGLTVLSRDDTTVHLACRGEAADITLVKGRQSLENFAFGVDDQEDLDRVESILKQEGVASERLNGDSRPGEGATLKFHLPSGHELRLCTGGAERRAGISDFDARGSHVPCDMDHINLLGAVDPSVMRDFLMMIGFKSSLNISVGGQLAGVWLRGSAYDHDIAYMRAVRPGDRLHHVAFAVEDGNHYFRLSDRLMDTGHRWEFGPGRHNGGLGKSTGFGTNNYAYAFDPFGNRNEFSSGMEQFSDDTPPLDCHIAPEQLTEVMNGWGYEMAETFMTVGSEGHHHHHH | not soluble
MSLGKYFGTDGVRGVANTELTPELAFKLGRIGGYVLTKDKENPKVLIGRDTRISGEMLEGALVAGLLSIGVEVMRLGVISTPGVAFLTKAVSASAGVMISASHNPVADNGIKFFGPDGFKLLDEQEKEIETLLDQEDALPRPTGADLGQANDYFEGAQKYLQFLKQTVDEDFTGIHIALDCANGAASSLAPHLFADLEADISTMGTSPNGKNINDGVGSTHPEALAAFVNAKNADIGLAFDGDADRLIAVDEKGNIVDGDKILYICAKYMKEKGLLKQQTLVTTVMSNLGLYKALEALQIDTKQTAVGDRYVMEEMRKGGYNLGGEQSGHIIFLDHITTGDGMLSALQLVNIMKQTGKKLSELAEEWETFPQTLVNIRVTDKHAVTDNEKVPAVIKEVEQEMNGEGRVLVRPSGTEPLVRIMVEAKTEELCDAFVNKIADVVKAELGQEEGHHHHHH | soluble
MSLGLAIIHSRASIGVQAPPVTVEVHISNGMPGFTLVGLPETTVKESRDRVRSAIINSRFEFPAKRITVNLAPADLPKEGGRFDLPIALGILAASDQIARNKLESYEFIGELALSGEIRGVKGVLPAALAANQVERCLVVPHSNGDQAALVGVERHKSAQSLLEVCADLCGQQTLSLFQSSPSVQQVSQTRDLQDIIGQQQGKRALEIAAAGNHNLLFLGPPGTGKTMLASRLCDLLPEMSDEEAMETASIASLTQQEINQHNWKLRPFRAPHHSSSMAALVGGGTIPRPGEISLAHNGLLFLDEMPEFERKVLDSLREPLESGEIVISRAQGKTRFPARFQLVGALNPSPTGYYEGSQARANPQSILRYLSRLSGPLLDRFDMSIEIPALPKGTLANGGDRGESTAAVRQRVWVARERMLARSGKVNALLQSREIEQYCPLLKADAEFLESALHRLGLSIRAYHRIIKVARTIADLQGEAQIARPHLAEALGYRAMDRLLKQLSAQNEGHHHHHH | soluble
MSLGMHLPGGIVENVRKRPGMYCGDVGEYGLHHLVYFLLDVAYEEARRGECRDVVLEVGGDGSIALFCTSRTVTAENLVRVATGAGFLGRPPGDGWGWDSMLVVSLALSSRYQVDIWADGRQWRVMGEHGHPQGEGAAVTPMEPMPVSAERGVRVHFVPDATIFEVLAFDRARLSRRCNELAALAPGLRVSFADLQRGERTLWHLPGGVAQWAHVLTEARPQLHPEPVVFDFTWDGLRVQCALQWCEDEDSTLLSFANAVRTVRHGAHVKGVTQALRGALAKLSGETRGAFPWARVAQGLTAIVAVSGPRRQMAFAGPTKELLAIPGLEEAIRKQLQPLFIELLREHPVTPALLARRTSGSEGHHHHHH | soluble
MSLGNPAAMLAAYNTSTQVAPQPQLGPRAGEVQLSSEQQAMIDYVLAGKDVIVDATVGSGKTTAIQRLCSIMGADHDVLYLTYSKLLKVDAQQRVRGAKVQNYHGIVYPHLLKAGIKCGISESIREFNKNFKHISRTFPSYDLLVIDEYQDINEDYAELLRNIKSVNPLMQIVMVGDLEQKVRSDTTLDPQEFAAQLCEDPVFAPFTQSFRIGEAMAAGLADAWNKPIVGANTAQQIEYRSFAEAVVLIQSTEPSKLLCLGSRNGQMSDALNVVERKSPAKFNKKTVFASIRDGDSQIAHPNDAAVFTTFDSSKGLERDTCVVFDYDEEFWDMRLGYPNVDPVVMRNVFLVAASRGKNKVVFVRSDSLQAAYEAGADWAAGLAVGVVDNNTEVAPEVDAHTPAEESKGDVGEVQSQIERMMGFIPVSVFKELPELAPSEYARPISVTEAFDFKYAENVEACFDLLDVKRLDNGKGAAIEVNRSDGLIDLSPTVGNFQEAVFFKDYNVHTALSAYPSQFAKNLKRLVKKNNSVWRNCLIVTAASTEQMRYVDQVRSSIPVAAEKALVSRLSTRLNADSRNQIPLILDGEAVQSKVVRTPMSFAGVADAVHKGVLYELKFVSELTHPMFLQLAMYLVMSGMKDGILWNTRTDEAWQVRVPDPKRFLNAVVLCVSKQDYRVGNFDLPSTGGEGHHHHHH | soluble
MSLGNTTVVTTTVRNATPSLTLDAGTIERFLAHSHRRRYPTRTDVFRPGDPAGTLYYVISGSVSIIAEEDDDRELVLGYFGSGEFVGEMGLFIESDTREVILRTRTQCELAEISYERLQQLFQTSLSPDAPRILYAIGVQLSKRLLDTTRKASRLAFLDVTDRIVRTLHDLSKEPEAMSHPQGTQLRVSRQELARLVGCSREMAGRVLKKLQADGLLHARGKTVVLYGTR | soluble
MSLGPVGMSGGMDINSMVSKIVDAERVPKQQRIDNDRTTINASISAYGRLRESLDTMKNLMANFRQEKAFAVRTVETTDDNIVSATATTDAIAGKYAIDVLQLAQSHK | not soluble
MSLGQKVRGNLIIIGGAEDKVGKKTILKYVADIVREKKGSLVILTTATQKPQEVGNNYRQVFETLGLMDIDVLNINSRDEADLDENAERIRSSGGIFFTGGDQLRITSILGGTKVYKALHEVYSKGVVIVGTSAGASVMSNTMIVEGKDNEPARKCTMKMAPGLGFLEEAIIDQHFDQRGRIGRLLCGVAENPFMLGIGIDEDTAIRVYPDAHFEVLGSNAVTVIDGSTIKSTNVSELNPDEILAISGVTLHVLPCGYGFDMKKKRSEGHHHHHH | soluble
MSLGTGSLGLTFHNFSFGDLFNPSAYHPLPHGDGQTLALQWQFGSNHYRTLSLSASDPWAFGTHTSLGFTAFKTKQTYDLTSSNLSTKTINQYGADITIGRRLTWPDDYFAISWRLGYLHTKGGFVSFLNETNAPEEAEEFSITQTISRNSIDNPIYPRHGSKNVFTAQLAGGVLPGTINFYKLIGKTSWFFPVSHNLVVNVAAQQGYLNTFSKDDYIPYTDYFYMGGSGMSSLPTIPLRGYPDHSLGQQFEGETDLYGGRVYSKFTTEVRYPLTLSSSASIYALAFAEAGNLWASASDFNLTDLKKSAGIGLRLYLPIIGQIGIDYGYGFDSVPSEPGKKPQGWNFTFSFGQPNEGHHHHHH | not soluble
MSLHEAADGILETHVTWKDIEEAMQLSFGTYATFGDNMKATNISDLKGFQSIIALIEPDWIDVEKGKDLPKKFAVKISTQLALAVLSKIMKLGGENGFSEEKLNELGKLIRDGHNREVATYKLLEKMNHPDIPYTKVYGLKGYSDANDLKGFMIMEFIPNVRSIPMYEAILADDLISLVRGIATFAALGETLSEEEKAFAGGPEYLESMFEEVFTDEQLERIY | not soluble
MSLHGRLRDILRLLMAAEAPVTSSFFAAQLNVTTRTVRNDIKELQGVLSGHGAFVQSVRGSGYKLRIDDEQVFRTLLQDEFQQKKGLPVLPEERMAYLMKRLLLADHYLKLDELAEELFISKSTLQTDLKEVKKRLLPYRIVMETRPNYGFKLRGDEVQMRYCMAEYIVDERETEIDVLNEKADILPKEEIEIIRSAILKKMKNDRIPLSNMGLNNLIIHIAIACKRIRTENYVSLFPKDMDHILHQKEYQAAEAIVKELESKLSVTFPKDETAYITMHLLGTKRMTQSQCGEDTFSIEEETDQLTLAMIKAVDRELKLGILHDKELKIGLALHMKPAISRNRYGMNLRNPMLAAIKEHYPLAFEAGIIAGIVIKEQTGIEIHENEIGYLALHFGAAIERKKTESPPKRCIIVCASGAGSAQLLREKLRSHFGKRLDILGTAEYYSLDQMSYESIDFVISTIPIKKELPVPVLKVNTILGGTDFTKIESILSDEKEKANRYLKKELVFFQEDLRSKEEVIQFLGQKVVECGFADEEIIDSIFEREDMSPTCFGNLVAIPHPLVPQTKTTFWAVCTLKKPIDWESQRVQFVCLLCVEKENKADLQSMYKLLGSILDDPAAMNQLIKCRSYQELSDVFDQKMLSEGHHHHHH | soluble
MSLHSLQRKVLRTICPDQKGLIARITNICYKHELNIVQNNEFVDHRTGRFFMRTELEGIFNDSTLLADLDSALPEGSVRELNPAGRRRIVILVTKEAHCLGDLLMKANYGGLDVEIAAVIGNHDTLRSLVERFDIPFELVSHEGLSRNEHDQKMADAIDAYQPDYVVLAKYMRVLTPEFVARFPNKIINIHHSFLPAFIGARPYHQAYERGVKIIGATAHYVNDNLDEGPIIMQDVIHVDHTYTAEDMMRAGRDVEKNVLSRALYKVLAQRVFVYGNRTIILEGHHHHHH | soluble
MSLHWSFPEMIRLFSDEYRSSMLSEGNFGVERESQRVNYSGDLALTPHPSVFGDKFENPRITTDFSESQIEMITPPLKSAEEVYKALNDINNEVKNALKGELLWPLSMPPRLPKEEDIPVAQFPDTEDGRQKQIYRNGLALRYGKKMQMISGIHYNFSFSDKMIDFIYRQLRIEKTKRQFIDEMYFSLTRNFLRYHWILIYLFGASPICDSTYNSVIFKELEKIEKCCPHCAGKIKNFNRYATSLRVSRFGYSDTDEKKYTVYFNSLREYETKIKKMMETESNKYSKLGIYKDGVQIQLNGNLLQSESEFYAPIRFKRNIKKGETQLTALVNRGVEYIEIRILDVNPFDKVGISVEQMNFLQVFNVFCLFEESKSIDEEQMERINTNHQLAALLGRNEDLMLYKYNDDSRIPLKNFGDEIFEKLRIVAKLMDKDNVEKKYSESVESEYKKLHNIELLPSERICREMDNDNRSYIQFGMEYAEAEGHHHHHH | not soluble
